Assays:
[1] = molecular target: T1, antigenic peptide located at positions 209-226 in the heavy chain α3 domain of the HLA-G molecules … (human); test: indirect ELISA, peptide coated at 2 ug/ml, antibody in 2-fold dilutions from 200-fold; logistic fit, 150000×A/antibody concentration
T1 construct: Synthetic peptide, coated on the ELISA plate at 2 ug/ml; also called immunogen
T1 peptide: KTHVTHHPVFDYEATLRC
Procedure: (§1) The antigen (SEQ No. 19 [sequence]) was diluted with the coating buffer, with the final concentration of 2 ug/ml, 100 ul/well, and placed at 4° C. overnight; washed with the wash buffer twice, blocked with the blocking buffer at 200 ul/well, incubated at 37° C. for 2 hours; then washed once with the wash buffer. The purified antibody was diluted by 2-fold starting from 200-fold (PBS), and the blank control (blank) was PBS, 100 ul/well, and incubated at 37° C. for 1 hour; and then washed 3 times with the wash buffer. The secondary antibody diluted with PBS by 20,000-fold was added, 100 ul/well, and incubated in a 37° C. incubator for 1 hour; taken out and washed 3 times with a wash buffer. Then the color development was performed with a developing solution of 100 ul/well for 5-15 minutes. Then 50 ul of stop solution was added to each well to stop. The absorbance value was measured at dual wavelengths (450, 630), and a chart was drawn for analysis.

HLA-G4 standard protein = molecular target: T2, HLA-G4 standard protein (human, UniProt P17693-4 25-246); test: immunoblot of HLA-G isoform standard proteins
T2 construct: Standard protein used in immunoblotting
Procedure: (§2) After electroporating the standard proteins of HLA-G isoforms (HLA-G1, HLA-G2, HLA-G3, HLA-G4, HLA-G5, HLA-G6 and HLA-G7), 5% skimmed milk powder was used to block at room temperature for 4 hours, and washed with 0.2% TBS (Tewen-20 PBS).

HLA-G3 standard protein = molecular target: T3, HLA-G3 standard protein (human, UniProt P17693-3 25-154); test: immunoblot of HLA-G isoform standard proteins
T3 construct: Standard protein used in immunoblotting
Procedure: as §2

HLA-G7 standard protein = molecular target: T4, HLA-G7 standard protein (human, UniProt P17693-7 25-116); test: immunoblot of HLA-G isoform standard proteins
T4 construct: Standard protein used in immunoblotting
Procedure: as §2

[2] = molecular target: T1, antigenic peptide located at positions …; test: indirect ELISA, peptide coated at 2 ug/ml; antibody stock 2.8 mg/mL
Procedure: as §1

Ka [1]: 1.1e+10 M⁻¹ | binding result (HLA-G4 standard protein): no binding (tested: 1.0 ug/ml) | binding result (HLA-G3 standard protein): no binding (tested: 1.0 ug/ml) | binding result (HLA-G7 standard protein): no binding (tested: 1.0 ug/ml) | antibody dilution factor corresponding to 1/2 OD value [2]: 205000 fold dilution
B1: monoclonal antibody (YWHG-3) against HLA-G1, -G2, -G5 and HLA-G6 isoforms (antibody, IgG1, V domains shown)
VH: LVQLQQSGGGLVKPGGSLKLSCAASGFTFSDYNMYWVRQTPEKRLEWVATISDGGRSTFYLDSVKGRFTISRDNAKNNLYLQINNLKSEDTAIYYCVRDDYWGQGTTLTVSS
VL: DIMMTQTPLSLPVSLGDQASISCRSSQSLVHSTGNTFLNWYLQKPGQSPKLLIYKVSNRFSGVSDRFSGSGSGTDFTLKIRRVEAEDLGVYFCSQSTHVPWTFGGGTKLEIK
notes: Used biotin-labelled in the HLA-G5 ELISA and FITC-labelled in flow cytometry; also called hybridoma CCTCC NO: 202121

From patent publication US20250034261A1 (TAIZHOU ENZE MEDICAL CENTER GROUP, published 2025)
